Experimental data reported in patent US20130273035.

Biological target: Aβ1-42 (UniProt P05067)
Sequence (P05067 whole entry, looked up, tested part not stated): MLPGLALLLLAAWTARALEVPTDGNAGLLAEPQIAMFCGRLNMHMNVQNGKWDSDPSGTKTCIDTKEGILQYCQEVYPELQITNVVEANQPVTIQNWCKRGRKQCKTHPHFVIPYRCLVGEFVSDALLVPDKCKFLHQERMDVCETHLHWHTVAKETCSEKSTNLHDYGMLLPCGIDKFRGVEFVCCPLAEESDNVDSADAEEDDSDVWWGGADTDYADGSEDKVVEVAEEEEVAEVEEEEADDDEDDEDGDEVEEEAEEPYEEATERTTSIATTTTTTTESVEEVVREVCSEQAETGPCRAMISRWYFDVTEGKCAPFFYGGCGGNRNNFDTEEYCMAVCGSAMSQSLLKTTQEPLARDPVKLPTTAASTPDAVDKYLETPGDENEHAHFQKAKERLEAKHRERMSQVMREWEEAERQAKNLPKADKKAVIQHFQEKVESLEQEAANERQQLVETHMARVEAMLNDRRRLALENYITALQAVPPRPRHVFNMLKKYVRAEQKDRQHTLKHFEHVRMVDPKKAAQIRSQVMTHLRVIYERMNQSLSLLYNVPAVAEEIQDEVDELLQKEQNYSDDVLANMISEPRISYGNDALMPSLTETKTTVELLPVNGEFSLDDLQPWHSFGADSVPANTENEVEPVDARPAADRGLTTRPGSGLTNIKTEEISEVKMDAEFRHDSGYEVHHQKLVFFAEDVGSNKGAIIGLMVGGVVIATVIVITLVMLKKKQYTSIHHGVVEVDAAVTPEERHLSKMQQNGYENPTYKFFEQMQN

Cathepsin L
proteolytic products analyzed with SELDI-TOF mass spectrometry: Incubating Aβ1-42 with CatL resulted in the dose-dependent generation of Aβ6-42 through proteolytic cleavage
